Values belong to the binder of their own block, whether it stands above or below them.
Assays:
[1] = molecular target: T1, hAng-1-WT (human, UniProt Q15389 20-498, limits assumed); test: SPR, 1 uM blocker premixed with 10 nM hAng-1-WT, over hTie-2-mFc surface; RU of hAng-1 bound
T1 construct: a tag is not mentioned there; also called full-length wild-type human Ang-1
T1 sequence (looked up): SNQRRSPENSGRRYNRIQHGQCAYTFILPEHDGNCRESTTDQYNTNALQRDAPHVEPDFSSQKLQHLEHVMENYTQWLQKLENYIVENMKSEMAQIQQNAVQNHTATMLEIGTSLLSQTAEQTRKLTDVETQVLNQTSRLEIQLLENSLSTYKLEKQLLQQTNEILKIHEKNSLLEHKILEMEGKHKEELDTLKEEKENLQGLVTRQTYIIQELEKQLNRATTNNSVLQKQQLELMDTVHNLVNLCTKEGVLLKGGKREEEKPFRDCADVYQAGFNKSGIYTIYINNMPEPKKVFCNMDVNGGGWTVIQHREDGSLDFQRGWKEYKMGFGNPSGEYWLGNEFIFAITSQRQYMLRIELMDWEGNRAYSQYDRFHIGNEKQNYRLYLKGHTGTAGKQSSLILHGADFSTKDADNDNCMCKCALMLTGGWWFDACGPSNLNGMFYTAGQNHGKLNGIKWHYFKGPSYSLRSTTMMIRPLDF
Procedure: (§1) In this experiment, a human Tie-2 full-length extracellular domain construct (hTie-2-mFc-ecto) was amine-coupled on a BIACORE™ chip to create a receptor coated surface. […] The equilibrated solutions were injected over the receptor surfaces at 5 μL/min for 5 minutes at 25° C.

[2] = molecular target: T1, hAng-1-WT; test: SPR, 1 uM blocker premixed with 10 nM hAng-1-WT, over hTie-2-mFc surface
Procedure: as §1

[3] = molecular target: T2, Monkey Ang-2FD-hFc (monkey (Macca fascicularis)); test: blocking ELISA, 16.67 nM antibody, Ang-2FD-hFc to coated hTie-2-mFc
T2 construct: also called dimeric monkey Ang-2FD
T2 sequence (chain, as listed by the source limits assumed): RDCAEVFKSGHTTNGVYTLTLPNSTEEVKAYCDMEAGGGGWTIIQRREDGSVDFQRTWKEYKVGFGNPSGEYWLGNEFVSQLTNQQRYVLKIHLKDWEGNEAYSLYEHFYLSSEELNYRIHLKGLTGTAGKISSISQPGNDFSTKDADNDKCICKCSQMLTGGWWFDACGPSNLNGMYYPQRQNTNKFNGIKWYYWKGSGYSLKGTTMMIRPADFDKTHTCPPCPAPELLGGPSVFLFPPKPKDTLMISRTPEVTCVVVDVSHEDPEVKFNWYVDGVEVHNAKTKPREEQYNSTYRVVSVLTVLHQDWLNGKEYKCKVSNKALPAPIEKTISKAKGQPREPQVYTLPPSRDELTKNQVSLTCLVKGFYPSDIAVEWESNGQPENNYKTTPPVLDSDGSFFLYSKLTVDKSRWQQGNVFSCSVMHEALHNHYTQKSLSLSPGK

[4] = molecular target: T3, Mouse Ang-2FD-hFc (mouse (Mus musculus)); test: as above
T3 construct: also called dimeric mouse Ang-2FD
T3 sequence (chain, as listed by the source limits assumed): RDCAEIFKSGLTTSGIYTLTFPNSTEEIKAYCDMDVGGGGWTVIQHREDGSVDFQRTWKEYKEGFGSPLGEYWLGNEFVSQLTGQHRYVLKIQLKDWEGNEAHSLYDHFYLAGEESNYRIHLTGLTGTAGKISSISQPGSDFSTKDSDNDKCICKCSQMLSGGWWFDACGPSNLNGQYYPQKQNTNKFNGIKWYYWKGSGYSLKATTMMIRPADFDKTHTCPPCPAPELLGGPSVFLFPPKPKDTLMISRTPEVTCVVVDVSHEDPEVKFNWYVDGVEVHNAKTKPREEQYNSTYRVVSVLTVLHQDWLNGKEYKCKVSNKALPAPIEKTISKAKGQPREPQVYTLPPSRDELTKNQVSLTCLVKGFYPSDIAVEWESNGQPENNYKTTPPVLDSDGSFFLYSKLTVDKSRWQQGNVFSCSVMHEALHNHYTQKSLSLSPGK

[5] = molecular target: T4, Human Ang-2FD-hFc (human); test: as above
T4 construct: also called dimeric human Ang-2FD; human Ang-2FD protein conjugated to human IgG
T4 sequence (chain, as listed by the source limits assumed): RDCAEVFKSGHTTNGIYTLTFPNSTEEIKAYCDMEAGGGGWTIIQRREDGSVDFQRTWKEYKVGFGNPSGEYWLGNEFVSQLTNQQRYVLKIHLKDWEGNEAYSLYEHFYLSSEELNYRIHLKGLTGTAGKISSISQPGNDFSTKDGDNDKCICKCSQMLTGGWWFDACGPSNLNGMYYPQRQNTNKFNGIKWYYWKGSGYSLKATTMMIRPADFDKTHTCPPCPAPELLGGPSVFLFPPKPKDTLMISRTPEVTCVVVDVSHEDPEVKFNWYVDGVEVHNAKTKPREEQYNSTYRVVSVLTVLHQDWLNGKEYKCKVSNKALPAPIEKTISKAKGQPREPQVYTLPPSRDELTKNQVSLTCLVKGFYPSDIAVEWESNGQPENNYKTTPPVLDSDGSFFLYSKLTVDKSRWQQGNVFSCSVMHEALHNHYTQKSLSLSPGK

[6] = molecular target: T5, Biotin-hBA2 (human, biotinylated (sites not given)); test: blocking ELISA, biotin-hBA2 to hTie-2
T5 construct: hBA2 consists of two dimers; also called biotinylated hBA2; human bow-Ang2
T5 sequence (chain, as listed by the source limits assumed): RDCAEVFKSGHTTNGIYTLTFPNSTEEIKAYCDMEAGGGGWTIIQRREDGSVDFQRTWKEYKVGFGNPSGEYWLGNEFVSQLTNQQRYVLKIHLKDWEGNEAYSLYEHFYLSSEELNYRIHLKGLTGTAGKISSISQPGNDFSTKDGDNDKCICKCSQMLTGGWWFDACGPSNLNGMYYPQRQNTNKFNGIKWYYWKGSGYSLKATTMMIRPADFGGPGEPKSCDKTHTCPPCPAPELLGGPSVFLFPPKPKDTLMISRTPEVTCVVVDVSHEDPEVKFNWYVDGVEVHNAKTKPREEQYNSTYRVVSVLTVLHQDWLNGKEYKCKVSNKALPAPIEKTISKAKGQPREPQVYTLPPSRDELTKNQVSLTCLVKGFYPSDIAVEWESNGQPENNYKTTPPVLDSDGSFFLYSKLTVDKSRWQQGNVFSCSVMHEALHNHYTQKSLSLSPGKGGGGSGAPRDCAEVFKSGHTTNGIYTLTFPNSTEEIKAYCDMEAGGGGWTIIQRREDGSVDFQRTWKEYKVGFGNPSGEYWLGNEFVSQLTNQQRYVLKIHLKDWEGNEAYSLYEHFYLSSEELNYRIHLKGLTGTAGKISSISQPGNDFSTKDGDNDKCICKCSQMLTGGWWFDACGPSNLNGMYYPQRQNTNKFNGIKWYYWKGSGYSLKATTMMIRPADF

[7] = molecular target: T6, Dimeric Mouse Ang-2FD conjugated to human IgG1 (mouse (Mus musculus); human); test: SPR, captured Ab, RT
T6 construct: also called Mouse Ang-2FD-hFc
Summary of the method: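 Antibody captured on amine-coupled goat anti-mouse IgG, anti-human κ or anti-human IgG polyclonal surfaces on a CM5 chip; antigen binding and dissociation followed in real time at room temperature. KD and complex dissociation half-life derived by kinetic analysis.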

[8] = molecular target: T6, Dimeric Mouse Ang-2FD conjugated to …; test: SPR, captured Ab, 25°C
Procedure: (§2) Each selected antibody or control construct was captured at a flow rate of 40 μL/min for 1 minute on a goat anti-human kappa polyclonal antibody surface created through direct chemical coupling to a BIACORE™ chip to form a captured antibody surface.

[9] = molecular target: T6, Dimeric Mouse Ang-2FD conjugated to …; test: SPR, captured Ab, 37°C
Procedure: as §2

B1: H1H706P (antibody, human IgG1, V domains shown)
VH: QVQLVESGGGVVQPGRSLRLSCAASGFTFSSYGMHWVRQAPDKGLEWVAVKWDDGSNKYYADSVKGRFTISRDNSKNTLYLQMNSLRAEDTAVYYCAREGPYDFYSGYGAFDIWGQGTMVTVSS
VL: DIQMTQSPSSLSASVGDRVTITCRASQGISNYLAWFQQKPGKAPKSLIYAASSLQSGVPSKFSGSGSGTDFTLTISSLQPEDFATYYCQQYNSYPRTFGQGTKVEIK
notes: Human IgG1
RU (average) [1]: 140 RU | Percent of Negative Control Binding [2]: 83% | Percent Blocking of Ang-2FD Binding to Tie-2 [3]: 99.8% | Percent Blocking of Ang-2FD Binding to Tie-2 [4]: 95.9% | Percent Blocking of Ang-2FD Binding to Tie-2 [5]: 97.1% | IC50 [6]: 8 pM

B4: H1H690P (antibody, human IgG1, V domains shown)
VH: EVQLVESGGGLVQPGESLRLSCAASGFTFSSYAMSWVRQGPGKGLEWVSSITGSGDTTYYADSVKGRFTISRDNSKNTLYLHMNSLRAEDTAVYYCAKDFLDYSTYLAFDLWGQGTMVTVSS
VL: EIVLTQSPATLSLSPGERATLSCRASQSVSSYLTWYQQKPGQAPRLLSYDASNRATGIPARFSGSGSGTDFTLTISSLEPEDFAVYYCQQRSNWPLTFGGGTKVEIK
notes: Human IgG1
Percent Blocking of Ang-2FD Binding to Tie-2 [3]: 99.6% | Percent Blocking of Ang-2FD Binding to Tie-2 [4]: 98% | Percent Blocking of Ang-2FD Binding to Tie-2 [5]: 97.2% | IC50 [6]: 17 pM

B5: H1H724N (antibody, V domains shown)
VH: QVQLVESGGGVVQPGRSLRLSCAASGFTLSNYGMHWVRQAPGKGLEWVAVIWHDGSNTYYADSVKGRFTISRDNSKNTLYLQMNSLRAEDTAVYYCTREGLDFWSGYYPNWFDPWGQGTLVTVSS
VL: DIQMTQSPSSLSASVGDRVTITCRASQGIRNDLGWYQQKPGKAPKRLIYAASNLQGGVPSRFSGSGSGTEFTLTISSLQPEDFAAYYCLQHNIYPLTFGGGTKVEIK
RU (average) [1]: 57 RU | Percent of Negative Control Binding [2]: 34% | Percent Blocking of Ang-2FD Binding to Tie-2 [3]: 96.6% | Percent Blocking of Ang-2FD Binding to Tie-2 [4]: 97.1% | Percent Blocking of Ang-2FD Binding to Tie-2 [5]: 96.6% | IC50 [6]: 4 pM

Results, then the binder that gave them:

RU (average) [1]: 71 RU | Percent of Negative Control Binding [2]: 42%
B2: hTie-2-mFc (Fc fusion)
chain: AMDLILINSLPLVSDAETSLTCIASGWRPHEPITIGRDFEALMNQHQDPLEVTQDVTREWAKKVVWKREKASKINGAYFCEGRVRGEAIRIRTMKMRQQASFLPATLTMTVDKGDNVNISFKKVLIKEEDAVIYKNGSFIHSVPRHEVPDILEVHLPHAQPQDAGVYSARYIGGNLFTSAFTRLIVRRCEAQKWGPECNHLCTACMNNGVCHEDTGECICPPGFMGRTCEKACELHTFGRTCKERCSGQEGCKSYVFCLPDPYGCSCATGWKGLQCNEACHPGFYGPDCKLRCSCNNGEMCDRFQGCLCSPGWQGLQCEREGIPRMTPKIVDLPDHIEVNSGKFNPICKASGWPLPTNEEMTLVKPDGTVLHPKDFNHTDHFSVAIFTIHRILPPDSGVWVCSVNTVAGMVEKPFNISVKVLPKPLNAPNVIDTGHNFAVINISSEPYFGDGPIKSKKLLYKPVNHYEAWQHIQVTNEIVTLNYLEPRTEYELCVQLVRRGEGGEGHPGPVRRFTTASIGLPPPRGLNLLPKSQTTLNLTWQPIFPSSEDDFYVEVERRSVQKSDQQNIKVPGNLTSVLLNNLHPREQYVVRARVNTKAQGEWSEDLTAWTLSDILPPQPENIKISNITHSSAVISWTILDGYSISSITIRYKVQGKNEDQHVDVKIKNATIIQYQLKGLEPETAYQVDIFAENNIGSSNPAFSHELVTLPESQAPADLGGGKGPGEPRGPTIKPCPPCKCPAPNLLGGPSVFIFPPKIKDVLMISLSPIVTCVVVDVSEDDPDVQISWFVNNVEVHTAQTQTHREDYNSTLRVVSALPIQHQDWMSGKEFKCKVNNKDLPAPIERTISKPKGSVRAPQVYVLPPPEEEMTKKQVTLTCMVTDFMPEDIYVEWTNNGKTELNYKNTEPVLDSDGSYFMYSKLRVEKKNWVERNSYSCSVVHEGLHNHHTTKSFSRTPGK
notes: also called hTie-2-mFc-ecto; human Tie-2 conjugated to mouse IgG

Kd [7]: 0.148 nM | T1/2 [7]: 129 min | Kd [8]: 0.0651 nM | T1/2 [8]: 208 min | Kd [9]: 0.0939 nM | T1/2 [9]: 64 min
B3: H1H685P (antibody, V domains shown)
VH: EVQLVESGGGLVQPGGSLRLSCAASGFTFSSYDIHWVRQATGKGLEWVSAIGPAGDTYYPGSVKGRFTISRENAKNSLYLQMNSLRAGDTAVYYCARGLITFGGLIAPFDYWGQGTLVTVSS
VL: EIVLTQSPGTLSLSPGERATLSCRASQSVSSTYLAWYQQKPGQAPRLLIYGASSRATGIPDRFSGSGSGTDFTLTISRLEPEDFAVYYCQHYDNSQTFGQGTKVEIK
